From USRE49099 (Bayer, dated 2022)

B1: Hu1573-1 (antibody, V domains shown)
VH: EVQLVESGGGLVQPGGSLRLSCAASGFTFSNYYLNWVRQAPGKGLEWVGDIRLKSNNYEKHYAESVKGRFTISRDDSKNSLYLQMNSLKTEDTAVYYCAREGDYFDYWGQGTTVTVSS
VL: DIVLTQTPLSLSVTPGQPASISCRASESVDSFGATFMHWYLQKPGQPPQLLIYLASNLESGVPDRFSGSGSRTDFTLKISRVEAEDVGVYYCQQNNEDPYTFGQGTKLEIKR
notes: Humanized IgG, human gamma 1 / kappa constant regions by vectors pCP-hCg1 and pCP-hck; also called H1573VH.1 + H1573Vk.2C
B2: Hu1573-2 (antibody, V domains shown)
VH: EVQLVESGGGLVQPGGSLRLSCAASGFTFSNYYLNWVRQAPGKGLEWVGDIRLKSNNYEKHYAESVKGRFTISRDDSKNSLYLQMNSLKTEDTAVYYCIREGDYFDYWGQGTTVTVSS
VL: DIVLTQTPLSLSVTPGQPASISCRASESVDSFGATFMHWYLQKPGQPPQLLIYLASNLESGVPDRFSGSGSRTDFTLKISRVEAEDVGVYYCQQNNEDPYTFGQGTKLEIKR
notes: Humanized IgG, human gamma 1 / kappa constant regions by vectors pCP-hCg1 and pCP-hck; also called H1573VH.1A + H1573Vk.2C
B3: Hu1573-5 (antibody, V domains shown)
VH: EVQLVESGGGLVQPGGSLRLSCAASGFTFSNYYLNWVRQAPGKGLEWVGDIRLKSNNYEKHYAESVKGRFTISRDDSKNSVYLQMNSLKTEDTAVYYCIREGDYFDYWGQGTTVTVSS
VL: DIVMTQTPLSLSVTPGQPASISCRASESVDSFGATFMHWYLQKPGQPPQLLIYLASNLESGVPDRFSGSGSRTDFTLKISRVEAEDVGVYYCQQNNEDPYTFGQGTKLEIKR
notes: Humanized IgG, human gamma 1 / kappa constant regions by vectors pCP-hCg1 and pCP-hck; also called H1573VH.1B + H1573Vk.2B
B4: Hu1573-8 (antibody, V domains shown)
VH: EVQLVESGGGLVQPGGSLRLSCAASGFTFSNYYLNWVRQAPGKGLEWVADIRLKSNNYEKHYAESVKGRFTISRDDSKNSLYLQMNSLKTEDTAVYYCIREGDYFDYWGQGTTVTVSS
VL: DIVMTQTPLSLSVTPGQPASISCRASESVDSFGATFMHWYLQKPGQPPQLLIYLASNLESGVPDRFSGSGSRTDFTLKISRVEAEDVGVYYCQQNNEDPYTFGQGTKLEIKR
notes: Humanized IgG, human gamma 1 / kappa constant regions by vectors pCP-hCg1 and pCP-hck; also called H1573VH.1C + H1573Vk.2B
B5: Hu1573-10 (antibody, V domains shown)
VH: EVQLVESGGGLVQPGGSLRLSCAASGFTFSNYYLNWVRQAPGKGLEWVGDIRLKSNNYEKHYAESVKGRFTISRDDSKSSLYLQMNSLKTEDTAVYYCIREGDYFDYWGQGTTVTVSS
VL: DIVLTQTPLSLSVTPGQPASISCRASESVDSFGATFMHWYLQKPGQPPQLLIYLASNLESGVPDRFSGSGSGTDFTLKISRVEAEDVGVYYCQQNNEDPYTFGQGTKLEIKR
notes: Humanized IgG, human gamma 1 / kappa constant regions by vectors pCP-hCg1 and pCP-hck; also called H1573VH.1D + H1573Vk.2A

Assays:
[1] = target: T1, human activated protein C (human, UniProt P04070 43-197; P04070 212-461); experiment: SPR (Biacore)
T1 construct: also called human aPC; human APC

human Protein C = target: T2, human Protein C (human, UniProt P04070 43-461); experiment: ELISA, coated antigen
T2 construct: Zymogen used as negative control in the ELISA; also called human PC; hPC

cyno activated protein C [2] = target: T3, cyno activated protein C (cyno (monkey)); experiment: ELISA, coated antigen
T3 construct: also called cyno aPC; cyno APC

[3] = target: T1, human activated protein C; experiment: ELISA, coated antigen
cyno activated protein C [4] = target: T3, cyno activated protein C; experiment: SPR (Biacore), 1:1 binding model
[5] = target: T1, human activated protein C; experiment: SPR (Biacore), 1:1 binding model

| Binder | Kd [1] [nM] | binding result (human Protein C) | EC50 (cyno activated protein C [2]) [nM] | EC50 [3] [nM] | Kd (cyno activated protein C [4]) [nM] | koff (cyno activated protein C [4]) [s⁻¹] | kon (cyno activated protein C [4]) [M⁻¹ s⁻¹] | Kd [5] [nM] | koff [5] [s⁻¹] | kon [5] [M⁻¹ s⁻¹] |
| --- | --- | --- | --- | --- | --- | --- | --- | --- | --- | --- |
| B1 | < 5 | no binding (tested: 20 nM) | 0.865 | 0.369 | 16.7 | 0.00402 | 240000 | 3.8 | 0.00554 | 1.46e+06 |
| B2 | < 5 | no binding (tested: 20 nM) | 0.774 | 0.265 | 16.4 | 0.00384 | 235000 | 4.61 | 0.00624 | 1.35e+06 |
| B3 | < 5 | no binding (tested: 20 nM) | 1.03 | 0.552 | 14.5 | 0.00293 | 202000 | 4.16 | 0.0064 | 1.54e+06 |
| B4 | < 5 | no binding (tested: 20 nM) | 0.713 | 0.697 | 12.3 | 0.00447 | 363000 | 4.03 | 0.006 | 1.49e+06 |
| B5 | < 5 | no binding (tested: 20 nM) | 0.68 | 0.575 | 11 | 0.00479 | 434000 | 4.38 | 0.00636 | 1.45e+06 |
